Source: publication PMC6147784, “Molecular mechanism of the Escherichia coli AhpC in the function of a chaperone under heat-shock conditions” (Scientific Reports, 2018)

B1: Escherichia coli alkyl hydroperoxide reductase subunit C (EcAhpC), His-tagged recombinant wild type (protein)
chain: MSLINTKIKPFKNQAFKNGEFIEITEKDTEGRWSVFFFYPADFTFVCPTELGDVADHYEELQKLGVDVYAVSTDTHFTHKAWHSSSETIAKIKYAMIGDPTGALTRNFDNMREDEGLADRATFVVDPQGIIQAIEVTAEGIGRDASDLLRKIKAAQYVASHPGEVCPAKWKEGEATLAPSLDLVGKI
B2: Escherichia coli alkyl hydroperoxide reductase subunit C (EcAhpC), His-tagged recombinant wild type (enzyme, UniProt P0AE08 1-187, looked up)
chain: B1 chain
modifications: disulfide bonded (referred as oxidized form) as purified; reduced with DTT (kept with TCEP or DTT) in the assays marked as reduced
notes: Alkyl hydroperoxide reductase subunit C (AhpC) of Escherichia coli, the entire enzyme; the C-terminal extension is printed as aa 173-187; The same construct was used as the oxidized (intermolecular disulphide) and as the reduced form; the assay's format tells which; also called WT EcAhpC; oxidized EcAhpC; source: E. coli, purified (Ni2+-NTA, gel filtration on Superdex 75)

What was measured:
P0AE08 [1] = assay: SEC; 10 µM protein (oxidized form) incubated at 53 °C for 60 min in 50 mM phosphate pH 7.0, cooled to room temperature, centrifuged; Superdex 200 10/300 GL in 50 mM Tris pH 7; dimers to HMW oligomers
P0AE08 [2] = assay: SEC; 10 µM oxidized EcAhpC incubated at 50 °C for 60 min in 50 mM phosphate pH 7.0, cooled to room temperature, centrifuged; Superdex 200 10/300 GL in 50 mM Tris pH 7; dimers to HMW oligomers
P0AE08 [3] = assay: SEC; 10 µM reduced EcAhpC (pre-reduced with 20 mM DTT, desalted) incubated at 53 °C for 60 min in 50 mM phosphate pH 7.0 with 1 mM TCEP, centrifuged; Superdex 200 10/300 GL; to HMW oligomers
P0AE08 [4] = assay: SEC; 10 µM oxidized EcAhpC incubated at 48 °C for 60 min in 50 mM phosphate pH 7.0, cooled to room temperature, centrifuged; Superdex 200 10/300 GL in 50 mM Tris pH 7; dimers to HMW oligomers
[5] = target: the molecule itself; assay: SEC; 10 µM protein (oxidized form) incubated at 25 °C for 60 min in 50 mM phosphate pH 7.0, centrifuged; Superdex 200 10/300 GL in 50 mM Tris pH 7 at room temperature; mass estimated from standards
[6] = target: the molecule itself; assay: dynamic light scattering; 1 mg/ml (50 µM) reduced EcAhpC (5 mM DTT) in 50 mM phosphate pH 7.0, equilibrated 10 min at 25 °C

| Protein | peak ratio (8.0 ml HMW peak to 15.5 ml dimer peak) (P0AE08 [1]) | peak ratio (8.0 ml HMW peak to 15.5 ml dimer peak) (P0AE08 [2]) | peak ratio (8 ml HMW peak to 16.5 ml peak) (P0AE08 [3]) | peak ratio (8.0 ml HMW peak to 15.5 ml dimer peak) (P0AE08 [4]) | stoichiometry N [5] | stoichiometry N [6] |
| --- | --- | --- | --- | --- | --- | --- |
| B1 | 0.9:1 | 0.2:1 | about 10:1 | 0.02:1 | – | – |
| B2 | – | – | – | – | 2 | 10 |
